Measurements reported in US20040235118A1.

Key:
[1] = molecular target: Crotalus durissus terrificus venom; assay: ELISA, C.d.t. venom-coated plate, dilution 1:312,500
[2] = molecular target: Crotalus durissus terrificus venom; assay: ELISA, C.d.t. venom-coated plate (5 µg/ml), dilution 1:625
[3] = molecular target: Crotalus durissus terrificus venom; assay: ELISA, C.d.t. venom-coated plate, dilution 1:3125
[4] = molecular target: Crotalus durissus terrificus venom; assay: ELISA, C.d.t. venom-coated plate, dilution 1:12,500
[5] = molecular target: Crotalus durissus terrificus venom; assay: ELISA, C.d.t. venom-coated plate (5 µg/ml), dilution 1:25
[6] = molecular target: Crotalus durissus terrificus venom; assay: ELISA, C.d.t. venom-coated plate (5 µg/ml), dilution 1:3125
[7] = molecular target: Crotalus durissus terrificus venom; assay: ELISA, C.d.t. venom-coated plate (5 µg/ml), dilution 1:5
[8] = molecular target: Crotalus durissus terrificus venom; assay: ELISA, C.d.t. venom-coated plate, dilution 1:5
[9] = molecular target: Crotalus durissus terrificus venom; assay: ELISA, C.d.t. venom-coated plate (5 µg/ml), undiluted
[10] = molecular target: Crotalus durissus terrificus venom; assay: ELISA, C.d.t. venom-coated plate, dilution 1:2,500
[11] = molecular target: Crotalus durissus terrificus venom; assay: ELISA, C.d.t. venom-coated plate, dilution 1:500
[12] = molecular target: Crotalus durissus terrificus venom; assay: ELISA, C.d.t. venom-coated plate, dilution 1:125
[13] = molecular target: Crotalus durissus terrificus venom; assay: ELISA, C.d.t. venom-coated plate (5 µg/ml), dilution 1:125
[14] = molecular target: Crotalus durissus terrificus venom; assay: ELISA, C.d.t. venom-coated plate, dilution 1:62,500
[15] = molecular target: Crotalus durissus terrificus venom; assay: ELISA, C.d.t. venom-coated plate, dilution 1:25
[16] = molecular target: Crotalus durissus terrificus venom; assay: ELISA, C.d.t. venom-coated plate, dilution 1:625

Question: What does the source list for “preimmune IgY (PEG preparation from eggs of unimmunized hens or purchased eggs) (antibody)”?
Answer: absorbance (412 nm filter) [1]: 0.01 OD; absorbance (ELISA) [2]: 0 OD; absorbance (ELISA) [3]: < 0 OD; absorbance (412 nm filter) [4]: 0.001 OD; absorbance (ELISA) [5]: 0 OD; absorbance (ELISA) [6]: 0.002 OD; absorbance (ELISA) [7]: < 0 OD; absorbance (ELISA) [8]: < 0 OD; absorbance (ELISA) [9]: 0.003 OD; absorbance (412 nm filter) [10]: 0.004 OD; absorbance (412 nm filter) [11]: 0.005 OD; absorbance (ELISA) [12]: < 0 OD; absorbance (ELISA) [13]: 0.003 OD; absorbance (412 nm filter) [14]: 0.001 OD; absorbance (ELISA) [15]: 0.016 OD; absorbance (ELISA) [16]: < 0 OD
